These are literature values, as cited in paper PMC7671103.

Where “and” joins values, the source holds several entries; their conditions need not be identical. Equal values may be shown once.

The data set concerns the target CoV main protease (Mpro) (SARS-CoV) (UniProt P0C6X7).

One may read the Kd as the free concentration of one partner at which half of the binding sites on the other are occupied at equilibrium, for simple one-to-one binding. Regarding “CoV main protease (Mpro) (from UniProt P0C6X7)”, the Kd was 0.8 µM and 2 µM.
